This data set in a line: soluble fraction after stress (log2 fold change); higher = more stays soluble; pooled small domains, quantitative proteomics. The note with it: stress: 75 degC.
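Further: 20 min heating vs room temperature control held 20 min.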

With “HMDGYLQLASKKNELITQLKTPPKPKRLFKDFEDRVYLITEYKVFVVSIFQNEFRLRPVNKDDFYRYTT”, the “soluble fraction (log2)” value was 0.293.
The result for “HMDGYTAVDKAVSDQYYTKENQLYFVSMGNFFSLGAKKIEGADISSFQILTTEYARDLQHLYFNGKV” reads -0.224; that for “HMDHFFSKYDSIVNHTVQKKETLFGISKKYGLTINEVIKFNPGIQIDKLKRRSVLIIPLMKKN”, -1.07; that for “HMDHKSALQELLAPRGLQPSYRLVEEAGPAHARVFTSEVSVDGVARGSGTGTTIKMSEQAAAREALASLG”, 0.249.
The result for “HMDHKSQLQEWAQSTLGETPRYVTIAETGPDHDKELTVELIIGRKSYSIAKGKSKKQAEQSAARIALGLLM” reads -1.99; that for “HMDHKSSYWSVKEANLFPELLKQFGSQWSLISDKLGTKSTTMVRNYYQRNAAQLGWKSVVEEADFKRNA”, -0.585.
The result for “HMDHTYKHIELTGSSEKGIEEAVQNALAKASESVQNMRWLEVTDTRGHIEDGRVAHWQVTVKVGFTL” reads 0.213.
For “HMDHVEDRMVLEVVLKKLTEEERRIVMLHAVSGLKHREIAKALDIPLSTVLSKYKRTLKKLEAYLMEME”, the “soluble fraction (log2)” value is -1.72.
As for “HMDIADKLTKREFEIFIAIAMNKSRFDIANELGLSAKTVSNGLTVIKRKLNAVPSQFSAIAAKHGYIG”, the “soluble fraction (log2)” value is -2.68.
“HMDIAYFSNAELNDAFIQFLNMRQEAGKQLNGYQIQILTEKLERVADTDEDRISAVKNAIAGGWSNFYPPK”: the “soluble fraction (log2)” value is -0.607.
Turning to “HMDIDASEVRGIISQYINEPDGRVSYILETIQKKYRYLPEEAIRIVAQELEVPLTQLFGVATFYAAFSL”, the “soluble fraction (log2)” value was 0.188.
As to “HMDIDLNTIKKITLDDIHAFLSYLTTTYHSKAATRARKASSIRVFFNYLSAKANLIEVNPAQNLETPKLD”, the “soluble fraction (log2)” value is 0.165.
On to “HMDIEELLSRSTDRLSRQTEIRRLLADAQGRPNISSLARRFKVARRTVIRDLQELIRRGEVPPEIYPK”, for which the “soluble fraction (log2)” value was -1.1.
As to “HMDIEFSDELRTFIDEWSKKEGGLVMMLHRIQNEYGFIPRTAAEKLSLISGIPLARIYGVITFYHFFKT”, the “soluble fraction (log2)” value was -0.499.
For “HMDIGNKIKELRTEQKMTQSDLAERLGVTKSSISSYENGSRLPSYDILLKIARIFKVSTDILLG”, the “soluble fraction (log2)” value is -1.47.
Then “HMDIGTRQRIIAAAMELFRQKGMDGMSMRELAERAGVNKGLLHYYFTTKEAIFREVFVHQVEM”, with -0.084; and “HMDIIIEEGIDESLSTDDAILDLLGRASDAFSNAQKALLEGDLGSYQKLIEQAERLVKKATELLGENN”, with -0.377.
Then “HMDIMNNILINRIKKILTEQNMSKADLSRLTGISNSSLSEYLNGKYEPKQDKIALIAKALHVSPAWLMGF”, with -1.22; and “HMDINNTNFSRDVDNLLQNEEFIKWRIFRTKEWEDYWENFRKENPHMEDALQEAISRFNAVK”, with 0.264; and “HMDINVDILPLLKTMTDTLRKVIELDIPFLKDARVQRVNSLDELLLRADITTAEKFRKVFEAYQIEADFGK”, with -0.976.
Then “HMDIPDIGHNVRIEVDGHNGKTTHEGIILHPAAPNHITIKLANGYNASYKLEEIINIEILGELGDDSKI”, with -0.136; and “HMDIPITFEQLPAKAQAFVKQYFKIEEIASVWRDDDIHDQDYKVYFNDGSEIEFYANGDWEEV”, with -0.827; and “HMDIPTSAEAVRAYLASGFIKGIGEATARMLVDKFGAETLEIIKTEPMKLTKISGIGPKKAKMIHESYLEK”, with 0.12.
Turning to “HMDIRLMPGTVLTREYQGIEHRVTVAQDGQYEFEGRRYPSLSMIAREITGTRWSGPLFFGVK”, the “soluble fraction (log2)” value was -1.09.
Then “HMDISEIEKRLLDFLEMPRSRKEIAEHLGIRTISYAIQTYITPLIDKKLVKMTIPESPRSHSQQYVRIN”, with -1.92; and “HMDISRMNLSQTERAVLSVLDSQPLHTEEIIASADLRAGAIHSALISLQLKGLIKQLPGNLYVK”, with -0.78.
Then “HMDITKPKISFEPGEMVRVVDGPFNDFSGVVEEVNYEKSKVRVAVLIFGRSTPVELQFNQIEK”, with -1.37; and “HMDITTIIADVPGPKTQIKVDIKNTSLHIFGGMNFKKEIDIGDNKEIINIKYINGTLTVKLKT”, with 0.231.
As to “HMDIVGAINKIESMKQDRYLAMHPYSITHSADGYYRTYLPADDGKRKQIKKKSKSDLEKVVIDYWTKRS”, the “soluble fraction (log2)” value is -0.242.
For the sequence “HMDIVKVYTTARAGETLASVAKRTGVDVARLAQWNDIPLKRAKQKLKTGKALALWVQREHASAYSNAPP”, the “soluble fraction (log2)” value was -1.78.
Then “HMDIVQLSEKINVMKMEIPAQAIGKTVLEVNFRARFDLNIIAIENGGKLVEVIKPDYVFREGDILFLSGS”, with -3.76; and “HMDIYENIDKELSKQGKSRRKLAIAAGIPPSTFQSMMERKRGLSVENLRKIAEVLNLKWYDLL”, with -0.985.
The result for “HMDIYKKFIIPATYFGSRLDHVLSELLPELSRSKIQNMIKQNLVMINGNHAAQKQKVVGDEEIIIKDI” reads -0.483.
Then “HMDKAALGQKLRQARLDKGYTQQSLSEKADIGEVYLSEIERGLKMPSMNLFIKLITALDISADYILR”, with -2.94.
“HMDKDTFGEFENVKLTEEEYNKLVEKLGENNTKLMIEELSTGIASKGYKYKSHYATILSWSRRRVTKLQER”: the “soluble fraction (log2)” value came to 0.0858.
Then “HMDKEIKILKEKRLDDVQQAIRELSPQKRRVVEMKLYHNSTNQEVADKLAISVNTVKSLYTSALHDLRRIL”, with -0.953; and “HMDKESQTMFRLLTGVSGVGPKVGLAILSVLSPDRVVLAISAGDHKAFTAASGVGPKLGQRIVLELKDKVG”, with -3.07; and “HMDKEVLYVTVNDKKVKLDGKNHIFIDIFNYIDFDIKKPNGSIVLKLNGKNAGYMDEIKDGDKIEIYWDK”, with -0.535.
The result for “HMDKEVMEAVLRILYDDDFNPDQRDAILYFFVQELDQRTISEITGAKIGTVKKRIHDGLKKLRQKLAKEDL” reads -2.04.
Then “HMDKGEQILQQALDKLPPKQRQVFEMRYFDEMPYREIATITETSEGALKASYHHAVKKIQQYISHL”, with -0.604.
As for “HMDKGQRGWINLVSVPTARVIIDGYDTGHETPLYGYEVERGKRKVTLISLDGTYERTYEIRIEPGTTTRVR”, the “soluble fraction (log2)” value is -0.779.
The result for “HMDKIEVVEVDMSKPYEDMTVTELQNVILDKLASNGPVTNQMKKDVSENIYHDSLVNWAKSF” reads -0.0122; that for “HMDKIYVYTTRGQVIELPRGSTAIDFAYKIQTDIGNMIIAAIVNDKLVDANYVLHNKDRVKIVTS”, -2.57.
“HMDKLNKELVSRMMDDAAWKELSKDFPWTEQLLEKYMNYVDWKEISRNYNVVWTKSLLEKFKHRLDWHE”: the “soluble fraction (log2)” value is -2.32.
In the case of “HMDKMIFFKNKENNDDNQLVKIGALLIHAAKIDEDFSQEEENIIKQTLINFGAGNKNINEIIEKAKKME”, the “soluble fraction (log2)” value was 0.0233.
In the case of “HMDKMVAVPNVRGIEASEAEATLIAQGLFVEVEKSDSEDANVAYGEVYAQTPKAGNRVEEGTTITIKVRTE”, the “soluble fraction (log2)” value was -0.0615.
“HMDKNNLHSVLQDVPGIGPKRMKELMRAFGSVEGMKKAGLEELAAVKGMNHKAAEALIQFFR”: the “soluble fraction (log2)” value turned out to be 0.163.
On to “HMDKQGGWLTMAEAAEKLGVTHHVIRRLIKEKILPAEQVMRHAPHQIRIVDLESDAVAEALRHR”, for which the “soluble fraction (log2)” value was -0.356.
Consider “HMDKVVGSAGDVTSRITANSGEVKIDGQIWQARSYDETIAIEAGEKIEVFDLDGITLIVYPI”, for which the “soluble fraction (log2)” value was -0.833.
The result for “HMDLAENWKDDADITLAEYNAIRSRYKPGKLHRDTEFMIARDMLIRPETVLAIAHSRFSNVHTHPV” reads -0.787; that for “HMDLDEELDFLSDADESATKLDLARAYIDMGDKDGARDILAEVLEEGRSEQKREAQALLDSI”, 0.249.
The result for “HMDLDPVEKLHLLSQLYVGQLKGSFVVKEKNQKTTIIGEVRELSHQTLSIRTNEGYRLIEVADILEIRLWE” reads -0.216; that for “HMDLDYSGIMNVLNQKYHITFYNNKKIQNLMPKLMIIMGYNSIINEIGHSKSLKALINSFEEKLKSYILT”, -3.19.
Take “HMDLEGLSNKELVTLRGQIQDDLNKWATEVGIIDPKNRPDDYNRALQSLEDAKRQRSAIDAKL”: the “soluble fraction (log2)” value stood at 0.0844.
Turning to “HMDLEIENYDLREILNLFKLDYNFDNVDLKRAQKIALKTHPDKSNLPKEYFMFFMKAFQIVQQIYYYRY”, the “soluble fraction (log2)” value was -0.441.
For “HMDLFREERRQAILDWLATAGRVSVAELSASFGVSEVTVRADLQALADRRLVVRTHGGAMMAG”, the “soluble fraction (log2)” value is -2.1.
Regarding “HMDLHSQVFESYERKIREVLREGPLTFEEILHAFALKRHETVAQVITYLMDEGKMSDSGDGKLIYSG”, the “soluble fraction (log2)” value was -0.86.
The result for “HMDLIISDIRMPEMRGDDFLEWIKANELFKHIPVIMLSSEDSTTERIRLLEIGAEDYIVKPFNPMELKIR” reads -0.495; that for “HMDLLIFSPSLGQHVRDLKRVIDRLHQHGIPVRWQKAKLLREEIEYIGWTWKSGGLIDPTNV”, -0.672; that for “HMDLMSTNEKLLYTMRYLISKSLDGAITEEEIRRLDRLIIENSQARAYYVEYLQIHTHLRKLMQQNPELK”, -2.39.
Then “HMDLRIIKTKKAIKTAFLNLLKENKYHNITISAISETALINRKTFYAHYETKDELYADVIEDALRVLSP”, with 0.114; and “HMDLRIKEIMSERNVTSAWLAEKVGISKVAVSNIVTGKSSPSLDNLLKIADALNVSITTLIG”, with -2.6.
The result for “HMDLRYKVQYNFIDQGMMTKDELLKFSLNQDDVSKIAVFDNDSKQWKEIYAITEISEKLGIS” reads -0.452; that for “HMDLTIEQTTVLGKRLFSNALNSLGKKQRNIKKDAIESLLKRMNLKDMDQLYESIGIGDKSPLLMAQILL”, -0.156.
Consider “HMDLVIALNSRIRVIREPFFGKLGTVIDLPHKLHKMESGTMTRVAKIKFDDRTEEIIPRTNLEVILS”, for which the “soluble fraction (log2)” value is -3.54.
Then “HMDLYEILGVRRGAGGGEIRRAYRRLARRYHPDVNPGDREAQARYALITRAFETLNDPERRRAYDAGVP”, with -0.817; and “HMDMAENEEYKVIMGQAQQLAEQFFPADDNTRRIMLGQLKLENYSLYLLTKQILDEATKGQAAAAN”, with -0.264; and “HMDNFDVVLTSPGDQKVQVIKAVRSITGLGLKEAKDLVDGAPNTVKEGVKKLDAEEMLKQLTEAGATGEL”, with 0.35.
The result for “HMDNFQFIGYSQQQGQIAVAWIKSLDNGRLVRVEVSDSLEGWRVSDISAQGVNLTKGQQWLMLKRL” reads -1.74.
With “HMDNIGKTLGQNQTRQYKVAYAEAAKLPAIIMGLVPLPKPPVVDERLRSLYVTATPEQHRQIETLMNRI”, the “soluble fraction (log2)” value is -0.114.

For the origin of these results see the domain aggregation screens of Martell et al. (2025).
